Measurements reported in the nanobody polyreactivity screen of Harvey et al. (2022).

Test: yeast display, Sf9 membrane polyspecificity reagent, FACS + sequencing; frameworks hold sequencing errors
How it was run: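 Nanobodies came from a synthetic yeast display library in Saccharomyces cerevisiae BJ5465, induced with galactose for 36–48 hours and stained for 1 hour at 4 °C with 10% biotinylated, detergent-solubilized Sf9 membrane reagent. Cells were enriched on streptavidin microbeads and then FACS-sorted, with low and high (top ~1%) gates set on anti-HA fluorescence for expression and streptavidin fluorescence for reagent binding. Each polyreactivity label reflects the gate a clone came from. Genes were amplified by colony PCR, sequenced by MiSeq 2 × 250 and filtered by CDR length.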

Sequence | polyreactivity (PSR sort gate)
QVQLVESGGGLVQAGGSLRLSCAASGFTFASYAMGWYRQAPAKEREFVAAITSRGGNTYYADSVKGRFTISRDNAKNTVYLQMNSLKPEDTAVYYCAAKSTYVVSKMNYWGQGTQVTVSS | high polyreactivity
QVQLVESGGGLVQAGGSLRLSCAASGFTFASYAMGWYRQAPGKEREFVAAITRSGGSTYYADSVKGRFTISRDNAKNTVYLQMNSLKPEDTAVYYCNRVTSSEFDYWGQGTQVTVSS | high polyreactivity
QVQLVESGGGLVQAGGSLRLSCAASGFTFASYAMGWYRQAPGKERELVAAISGSGTSTYYADSVKGRFTISRDKAKNTVYLQMNSLKPEHTAVYYCAARRYGYRYDYWGQGTQVTVSS | high polyreactivity
QVQLVESGGGLVQAGGSLRLSCAASGFTFATNAMGWYTPAPGKERELVAVISSGGSTYYADSVKGLFTISRDNAKNTVYLQMNRLKPEDTAVYYCNAGRKVRGALDGYDYWGQGTQVTVSS | high polyreactivity
QVQLVESGGGLVQAGGSLRLSCAASGFTFATYAMGWYRQAPGKERELVAAITSGDRTKYADSVKGRFTISRDNAKNTVYLQMNSLKPEDTAVYYCAATTYKVSTGYGYWGQGTQVTVSS | high polyreactivity
QVQLVESGGGLVQAGGSLRLSCAASGFTFAVFARGWYRQAPGKERELVAAISRTGTRTYYADSVKGRFTISRDNAKNTVYLQMNSLKPEDTAVYYWAADKYRHGYDYWGQGTQVTVSS | low polyreactivity
QVQLVESGGGLVQAGGSLRLSCAASGFTFAVNAMGWYRQAPGKERELVAAISKSGGRTYYADSVKGRFTISRDNAKNTVYLQMNSLKPEDTAVYYCAADGPGYTYDYWGQGTQVTVSS | high polyreactivity
QVQLVESGGGLVQAGGSLRLSCAASGFTFAVNAMGWYRQAPGKERELVAAISKSGGRTYYADSVKGRFTISRDNAKNTVYLQMNSLKPEDTAVYYCAAEGPGYTYDYWGQGTQVTVSS | high polyreactivity
QVQLVESGGGLVQAGGSLRLSCAASGFTFAVYAMGWSRQAAAKERELVAAISRSGTRTYYADSVKGRFTISRDNGKNTVYLQMNSLKPEDTAVYYFAAEVPDTDAYGYWGQGTQVTVSS | low polyreactivity
QVQLVESGGGLVQAGGSLRLSCAASGFTFAVYDMGWYRQAPGKERELVAVISSVGSTNYADSVKGRFTISRDNAKNTVYLQMNSLKPEDTAVYYCNAVYWYRDRWYQTGYGYWGQGTQVTVSS | high polyreactivity
QVQLVESGGGLVQAGGSLRLSCAASGFTFAVYTMGWYRQAPGKERELVAAITGSGGRTYYADSVKGRFTISRDNAKNTVYLQMNSLKPEDTAVYYCNAVQRSSRQTFEYCGQGTQVTVSS | low polyreactivity
QVQLVESGGGLVQAGGSLRLSCAASGFTFAYDAMGWYRQAPGKERELVAAIRRRGGITYYADSVKGRFTISRDNAKNTVYLQMNSLKPEDTAVYYWNAVRSYPAGYDSWGQGTQVTVSS | low polyreactivity
QVQLVESGGGLVQAGGSLRLSCAASGFTFAYYAMGSYRQAPGKERELVAAIRKSGATTYYADSVKGRFTISRDNSKNTVYLQMISLKPEDTAVYYCNAVVKSSSRGSIAHPGYDYWGQGTQVTVSS | high polyreactivity
QVQLVESGGGLVQAGGSLRLSCAASGFTFAYYAMGWYRQAPGKERELVAAISSGDNTNYADSVKGRFTISRDNAKNTVYLQMNSLKPEDTAVYYCNAEYNFKWWGPYWYYVKDDYWGQGTQVTVSS | low polyreactivity
QVQLVESGGGLVQAGGSLRLSCAASGFTFAYYAMGWYRQAPGKERELVAAITSGGSTKYADSVKGRFTISRDNAKNTVYLQMNSVKPEDTAVYYCFLRGRATQWDFGYWGQGTQVTVSS | high polyreactivity
QVQLVESGGGLVQAGGSLRLSCAASGFTFAYYAMGWYRQAPGKERELVASITSGGSTYYADSVKGRFTISRDNAKNTVYLQMNSLKPEATAVYYCAARVRSELIKRYYWGQGTQVTVSS | high polyreactivity

Sequence | polyreactivity (PSR sort gate)
QVQLVESGGGLVQAGGSLRLSCAASGFTFAYYAMGWYRQAPGKETELVAAITSGGRTNYADSVKGRFTISRDNAKNTVYLQMNSVKPEDTAVDYCAKYRRGGSRHYSVFNHDYWGQGTQVTVSS | high polyreactivity
QVQLVESGGGLVQAGGSLRLSCAASGFTFDDYAMGWYRQAPGKERELVAAISWSGGSTYYADSVKGRFTISRDNAKNTVYLQMNSLKPEDTAVYYCAALRTGAQYSTMDYWGQGTQVTVSS | low polyreactivity
QVQLVESGGGLVQAGGSLRLSCAASGFTFDDYVMGWYRQAPGKERELVAAISRSGGSTYYADSVKGRFTISRDNAKNTVYLQMNSLKPEDTAVYYCAARTYSWGDWGQGTQVTVSS | high polyreactivity
QVQLVESGGGLVQAGGSLRLSCAASGFTFDFYAMGWYRQAPGKERELVAAISKNDGTTYYADSVKGRFTISRDNAKNTVYLQMNSLKPEDTAVYYCAAESGYPVYTYVSSGDYWGQGTQVTVSS | low polyreactivity
QVQLVESGGGLVQAGGSLRLSCAASGFTFDFYAMGWYRQAPGKERELVASIRWSGGSTYYADSVKGRFTISRDNAKNTVYLQMNSLKPEDTAVYYCAKSIASAAYDSWGQGTQVTVSS | low polyreactivity
QVQLVESGGGLVQAGGSLRLSCAASGFTFDFYVMGWYRPAPGTERELVAANSWDGGTTYYADSVKGRFTISRDNAKNTVYLQLNSLKPEDTAVYYCAADDWVYVPTGAWYLYEYWGQGTQVTVSS | high polyreactivity
QVQLVESGGGLVQAGGSLRLSCAASGFTFDGYAMGWDRQAPGKESELVAAISDSGDSTYYADSVKGRFTISRDNAKNTVYLQMNSLTPEDTAVYYCAAGLGYYWSDYFADDSCGQGTQVTVSS | low polyreactivity
QVQLVESGGGLVQAGGSLRLSCAASGFTFDINAMGWSRQAPGKERELVAAISRSGGRTYYADSVKGRFTISRDNAKNTVYLQMNSLKPDDTAVYYCAARYPERRYNTFDYWGQGTQVTVSS | high polyreactivity
QVQLVESGGGLVQAGGSLRLSCAASGFTFDIYAMGWYRQAPGKERELVATISRSGGTTYYADSVKGRFTISRDNAKNTVYLQMNSLKPEDTAVYYCNAGRYYIGGYWGQGTQVTVSS | high polyreactivity
QVQLVESGGGLVQAGGSLRLSCAASGFTFDIYAMGWYRQAPGKEREMVADITSGGSTDYADSVKGRFTISRDNAKNTVYLQMNSLKPEDTAVYYCNGAVFYDPEWQYDYWGQGSQVTVSS | low polyreactivity
QVQLVESGGGLVQAGGSLRLSCAASGFTFDKNTMGWYRQAPGKERELVAAITRGGGSTYYADSVKGRFTISRDNAKNTVYLQMNSLKPEDTAVYYCAARYWTKRYRLLDYWGQGTQVTVSS | high polyreactivity
QVQLVESGGGLVQAGGSLRLSCAASGFTFDLYAMGWYRQAPGKERELVAAISWSGGSTRYADSVKGRFTISRDNAKNTVYLQMNSLKPEDTAVYYCARQPRLYFKGKLYGYWGQGTQVTVSS | high polyreactivity
QVQLVESGGGLVQAGGSLRLSCAASGFTFDRNAMGWYRQAPGKERGLVAAISSSGGRTYYADSVKGRFTISRDNAKNTVYLQMNSLKPEDTAVYYCAATSSYSYDYWGQGTQVTVSS | high polyreactivity
QVQLVESGGGLVQAGGSLRLSCAASGFTFDRYANGWYRQAPWKAWELVAAITRRGGSTYYADSVKGRFTISRDNAKKTVYLQMNSLKPEDTAVYYCNARTYVTVDYDYCGQGTQVTVSS | high polyreactivity
QVQLVESGGGLVQAGGSLRLSCAASGFTFDSYAMGRYRQAPGKERELVAAISSSGGDSTSYADSVKGRFTISRDNAKNTVYLQMNRLKPEDTAVYYCADEQFYSFIVDDTWFSGFDYWGQGTQVTVSS | low polyreactivity
QVQLVESGGGLVQAGGSLRLSCAASGFTFDSYAMGWYRPAPGKERELVAAITSDGSTYYADSVKGRFTISRDNAKNTVYLQMNSLKPEDTAVYYCAARSTARYGYWGQGTQVTVSS | low polyreactivity
